Laboratory results taken from the nanobody polyreactivity screen of Harvey et al. (2022).

Assay: yeast display, Sf9 membrane polyspecificity reagent, FACS + sequencing; frameworks hold sequencing errors
In short: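 Genes from sorted yeast were amplified by colony PCR, read by MiSeq 2 × 250 sequencing and filtered on CDR length. These cells carried a synthetic nanobody library in Saccharomyces cerevisiae BJ5465 and were sorted by FACS into low and high (top ~1%) gates on anti-HA and streptavidin fluorescence. Polyreactivity is labelled according to the gate of origin.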

Which “polyreactivity (PSR sort gate)” value does the source give for “QVQLVESGGGLVQAGGSLRLSCAASGRTFLGYSMGWYRQAPAKERELVAAISGSCDRTYYADSVKGRFTISRDNAKHTVYLQMYSLKPEYTEVYYCNAVTVRYYASYYGRGMDYWGQGTQETVSS” here?
Its value is “high polyreactivity”.

With “QVQLVESGGGLVQAGGSLRLSCAASGRTFLGYTMGWYRQAPGKEREFVAAITFSGDSTYYADSVKGRFTISRDNAKNTVYLQMNSLKPEDTAVYYCAARKKYYTYLFYYWGQGTQVTVSS” as the sequence, how does the “polyreactivity (PSR sort gate)” value read?
The value was “high polyreactivity”.

With “QVQLVESGGGLVQAGGSLRLSCAASGRTFLHNAMGWYRQAPGKERELVAAITWSGGSTYYADSVKGRFTISRDNAKNTVYLQMNSLKPEDTAVYYCNARHRYYRYGYWGQGTQVTVSS” as the sequence, how does the “polyreactivity (PSR sort gate)” value read?
Its value is “high polyreactivity”.

For “QVQLVESGGGLVQAGGSLRLSCAASGRTFLINAMGWYRQAPGKERELVADITGRGSSTYYADSVKGRFTISRDNAKNTVYLQMNSLKPEDTAVYYCNAVLRKITYDYWGQGTQVTVSS”, which “polyreactivity (PSR sort gate)” value is on record?
The value was “high polyreactivity”.

Which “polyreactivity (PSR sort gate)” value does the source give for “QVQLVESGGGLVQAGGSLRLSCAASGRTFLIYAMGWYRQAPGKEREFVATITYSGGSTYYADSVKGRFTISRDNAKNTVYLQMNSLKPEDTAVYYCAAVRYGYRRSGPYNYSYDYWGQGTQVTVSS” here?
Its value is “high polyreactivity”.

Which “polyreactivity (PSR sort gate)” value does the source give for “QVQLVESGGGLVQAGGSLRLSCAASGRTFLIYAMGWYRQAPGKERELVAAITSGGRTKYADSVKGRFTISRDNAKYTVYLQMNSLKPEDTAVYYCAARTGVYRYSRKFDYWGQGTQVTVSS” here?
Its value is “high polyreactivity”.

With “QVQLVESGGGLVQAGGSLRLSCAASGRTFLLNAMGWSRQAPGKERELVAAITRSGVITYYADSVKGRFTISRDNAKNTVYLQMNSLKPEDTAVYYCAAQLRYSYLRPSYYYWGQGTQVTVSS” as the sequence, how does the “polyreactivity (PSR sort gate)” value read?
Its value is “high polyreactivity”.

Which “polyreactivity (PSR sort gate)” value does the source give for “QVQLVESGGGLVQAGGSLRLSCAASGRTFLLYAMGWYRQAPGKERELVAAIRSSTVSTYYADSVKGRFTISRDNAKNTVYLQMNSLKPEDTAVYYCAASRPKYGPSGVHYNYWGQGTQVTVSS” here?
Its value is “high polyreactivity”.

For “QVQLVESGGGLVQAGGSLRLSCAASGRTFLLYAMGWYRQAPGKERELVAAITRGGRTNYADSVKGRFTISRDNAKNTVYLQMNSLKPEDTAVYYCAARYVERHTDYYYWGQGTQVTVSS”, which “polyreactivity (PSR sort gate)” value is on record?
Its value is “low polyreactivity”.

Which “polyreactivity (PSR sort gate)” value does the source give for “QVQLVESGGGLVQAGGSLRLSCAASGRTFLNYAMRWNRQAPVKERELVAAITDGDSTNYADSVKGRFTISRDNAKNTVYLQMNSLKPEDTAVYYCNAPSLAYRYYYWGQGTQVTVSS” here?
The value was “high polyreactivity”.

With “QVQLVESGGGLVQAGGSLRLSCAASGRTFLPNAMGWYRQAPGKERELVAVITSGGSTNYADSVKGRFTISRDNAKNTVYLQMNSLKPEDTAVYYCASRRWSSSQGHWGKSAGYGYWGQGTQVTVSS” as the sequence, how does the “polyreactivity (PSR sort gate)” value read?
The value was “low polyreactivity”.

Which “polyreactivity (PSR sort gate)” value does the source give for “QVQLVESGGGLVQAGGSLRLSCAASGRTFLPNDMGWSIQAPGKERELVAAITDSGGDTYYADSVKGRFTISRDNAKNTVYLQMNSLKPEDTAVYYCAADYYYYGSYYPVEYWGQGTQVTVSS” here?
Its value is “high polyreactivity”.

Which “polyreactivity (PSR sort gate)” value does the source give for “QVQLVESGGGLVQAGGSLRLSCAASGRTFLRNAMGWYRQAPGKERELVAAISSGGGRTYYADSVKGRFTISRDNAKNTVYLQMNSLKPEDTAVYYCAALYQYLGGVYEGYYWGQGTQVTVSS” here?
The value was “high polyreactivity”.

With “QVQLVESGGGLVQAGGSLRLSCAASGRTFLRNAMGWYRQAPGKERELVATISWGGGSTYYADSVKGRFTISRDNAKNTVYLQMNSLKPEDTAVYYCAKQRAWSGFDYWGQGTQVTVSS” as the sequence, how does the “polyreactivity (PSR sort gate)” value read?
Its value is “high polyreactivity”.

For “QVQLVESGGGLVQAGGSLRLSCAASGRTFLRYAMGWYRQAPGKERELVAAISSRGGSTYYADSVKGRFTISRDNAKNTVYLQMNSLKPEDTAVYYCAADTYYTRYYYWGQGTQVTVSS”, which “polyreactivity (PSR sort gate)” value is on record?
The value was “high polyreactivity”.

For “QVQLVESGGGLVQAGGSLRLSCAASGRTFLRYAMGWYRQAPGKERELVAAISSRGGSTYYADSVKGRFTISRDNAKNTVYLQMNSLKPEDTAVYYCAARFLHYYPTRGYTYDYWGQGTQVTVSS”, which “polyreactivity (PSR sort gate)” value is on record?
The value was “high polyreactivity”.

With “QVQLVESGGGLVQAGGSLRLSCAASGRTFLRYAMGWYRQAPGKERELVAAITYGGRTNYADSVKGRFTISRDNAKNTVYLQMNSLKPEDTAVYYCAADRTYYYGLRVDYWGQGTQVTVSS” as the sequence, how does the “polyreactivity (PSR sort gate)” value read?
The value was “high polyreactivity”.

For “QVQLVESGGGLVQAGGSLRLSCAASGRTFLTYVMGWYRQAPWKERELVAAITRGGRTNYADSVKGRFTISRDNAKNTVYLQMNSLKPEDTAVYYCARDDTPRYDYWGQGTQVTVSS”, which “polyreactivity (PSR sort gate)” value is on record?
The value was “low polyreactivity”.

For “QVQLVESGGGLVQAGGSLRLSCAASGRTFLVNAMGRYREAPGKVREFVAAITSRSGRTNYADSVKGRFTISRDNAKNTLYLQMNRLQPEDTAVYYCNAEGYTVKYWYSRYDYWGQGTQVTVSS”, which “polyreactivity (PSR sort gate)” value is on record?
Its value is “high polyreactivity”.

For “QVQLVESGGGLVQAGGSLRLSCAASGRTFLVYALGWYRQAPGKERELVAGITSGGGTYYADSVKGRFTISRDNAMNTVYLQINSLKPEETAVYYCAKYRWYGVYWGQVTQVTVSS”, which “polyreactivity (PSR sort gate)” value is on record?
Its value is “low polyreactivity”.

With “QVQLVESGGGLVQAGGSLRLSCAASGRTFLWNAMGWYRQAPGKERELVAAISISGGNTNYADSVKGRFTISRDNAKNTVYLQINSLKPEDTAVYYCNADPRAEPGDWSYEMDYWGQGTQVTVSS” as the sequence, how does the “polyreactivity (PSR sort gate)” value read?
Its value is “low polyreactivity”.

For “QVQLVESGGGLVQAGGSLRLSCAASGRTFLWYAMGWYRQAPGKEREFVAAITSSGGDTYYADSVKGRFTISRDNAKNTVYLQMNSLKPADTAVYYCAARTRKWFDYAIHYYWGQGTQVTVSS”, which “polyreactivity (PSR sort gate)” value is on record?
The value was “low polyreactivity”.

Which “polyreactivity (PSR sort gate)” value does the source give for “QVQLVESGGGLVQAGGSLRLSCAASGRTFLYNAMGWYRQAPGKERELVAAISWSGGSTYYADSVKGRFTISRDNAKNTVYLQMNSLKPEDTAVYYCAAYWVWPGRYWYDYWGQGTQVTVSS” here?
Its value is “high polyreactivity”.

For “QVQLVESGGGLVQAGGSLRLSCAASGRTFLYNAMGWYRQAPGKERELVASLTRRGGTTYYADSVKGRFTISRDFAKNNVYFQMISLKPEVTAVYYCNAQPGISYYYYGHWYGYWGQGTQVTVSS”, which “polyreactivity (PSR sort gate)” value is on record?
The value was “high polyreactivity”.

Which “polyreactivity (PSR sort gate)” value does the source give for “QVQLVESGGGLVQAGGSLRLSCAASGRTFLYNAMGWYSQATWKERELVASITRRGGTTYYADSVKGRFTISRDNAKNTVYLQMNSLKPEDTAVYYCNAQPGISYYYYGHWYGYWGQGTQVTVSS” here?
The value was “high polyreactivity”.

For “QVQLVESGGGLVQAGGSLRLSCAASGRTFLYYAMGWYRQAPGKERELVAAISSGGRTNYADSVNGRFTISRDNAKNTVYLQMNSRKPEDTAVYYCAVRRGAFSTYPGYNYWGQGTQVTVSS”, which “polyreactivity (PSR sort gate)” value is on record?
The value was “high polyreactivity”.

With “QVQLVESGGGLVQAGGSLRLSCAASGRTFNFNVMGWYRQAPGKESQLVAAISKSTGSTFYADSVKGRFTISRDNAKNTVYLQMNSLKPEDTAVYYCNAVRCYGSGRGYGYCGQGTQVTVSS” as the sequence, how does the “polyreactivity (PSR sort gate)” value read?
The value was “high polyreactivity”.

For “QVQLVESGGGLVQAGGSLRLSCAASGRTFNIYAMGWYRQAPGKERELVAAITWRSGSTYYADSVKGRFTISRDNAKNTVYLQMNSLKPEDTAVYYCAAEQWSSVPEFDYWGQGSQVTVSS”, which “polyreactivity (PSR sort gate)” value is on record?
The value was “high polyreactivity”.

Which “polyreactivity (PSR sort gate)” value does the source give for “QVQLVESGGGLVQAGGSLRLSCAASGRTFNRYAMGWYRQAPGKERELVAAINWSGGSTYYADSVKARFTISRDIAKTTVYLPMNSLKPEDTAVYYCAADVWGWGLRPYDYWGQGTQVTVSS” here?
The value was “low polyreactivity”.

Which “polyreactivity (PSR sort gate)” value does the source give for “QVQLVESGGGLVQAGGSLRLSCAASGRTFNRYGMGWYRQAPGKERELVASITSGGSTNYADSVKGRFTISRDNAKNSVYLQMNSLKPEDTAVYYCAKRSIGRYPRTYDYWGQGTQVTVSS” here?
The value was “low polyreactivity”.

With “QVQLVESGGGLVQAGGSLRLSCAASGRTFNTNAMGWYRQAPGKERELVAAISGSGVRTYYADSVKGRFTISRDNAKNTVYLQMNSLKPEDTAVYYCAARGQGGPYNYWGQGTQVTVSS” as the sequence, how does the “polyreactivity (PSR sort gate)” value read?
The value was “high polyreactivity”.
